In experiment [1] the target is T1, Human CD228 protein (human, UniProt P08582 20-708, limits assumed).
T1 construct: Recombinant protein made in CHO cells, purified over a Ni column; The printed entry begins with the leader (MRGPSG...) and ends with ten His; also called hCD228; CD228-His protein
T1 sequence: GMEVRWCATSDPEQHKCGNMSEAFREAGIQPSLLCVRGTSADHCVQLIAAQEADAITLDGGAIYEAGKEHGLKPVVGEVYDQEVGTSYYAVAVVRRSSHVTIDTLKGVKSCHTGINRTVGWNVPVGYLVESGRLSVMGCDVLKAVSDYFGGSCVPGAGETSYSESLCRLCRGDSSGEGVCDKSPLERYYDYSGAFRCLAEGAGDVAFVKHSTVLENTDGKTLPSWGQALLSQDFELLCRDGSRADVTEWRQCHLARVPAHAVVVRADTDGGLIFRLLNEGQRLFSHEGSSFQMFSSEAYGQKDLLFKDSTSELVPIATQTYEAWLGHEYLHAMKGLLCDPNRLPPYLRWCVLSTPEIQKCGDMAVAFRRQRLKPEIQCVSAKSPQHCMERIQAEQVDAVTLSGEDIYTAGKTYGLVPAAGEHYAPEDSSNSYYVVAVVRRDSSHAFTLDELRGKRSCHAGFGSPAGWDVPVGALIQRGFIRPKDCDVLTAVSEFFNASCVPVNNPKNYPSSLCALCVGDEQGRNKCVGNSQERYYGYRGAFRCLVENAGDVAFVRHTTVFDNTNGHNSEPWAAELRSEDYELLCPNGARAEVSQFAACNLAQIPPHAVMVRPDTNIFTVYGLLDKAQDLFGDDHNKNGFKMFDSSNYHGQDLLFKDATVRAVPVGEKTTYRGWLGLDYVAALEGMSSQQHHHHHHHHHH
The experiment is described as follows: Octet competition on His-chip CD228; competitor: CA185. The procedure:
CD228 proteins were immobilized on His chips at 10 μg/mL with a threshold of 0.5 nm. The first CD228 antibody (30 μg/mL) was immobilized, and the competitive binding of the second CD228 antibody (30 μg/mL) was analyzed. The Octet 8K system was used to analyze the response of antibody 2 and to determine whether antibody 1 and antibody 2 were in competition.

Experiment [2] deals with T1, Human CD228 protein. The experiment is described as follows: affinity assay (method not given).

Numbering of substitutions follows the chain as printed.

B1: reference antibody hL49 (antibody, human IgG1, kappa, V domains shown)
VH: QVQLQESGPGLVKPSETLSLTCTVSGDSITSGYWNWIRQPPGKGLEYIGYISDSGITYYNPSLKSRVTISRDTSKNQYSLKLSSVTAADTAVYYCARRTLATYYAMDYWGQGTLVTVSS
VL: DFVMTQSPLSLPVTLGQPASISCRASQSLVHSDGNTYLHWYQQRPGQSPRLLIYRVSNRFSGVPDRFSGSGSGTDFTLKISRVEAEDVGVYYCSQSTHVPPTFGQGTKLEIKR
notes: also called H149; hL49 analogy
B1 returned an Octet response value with Human CD228 protein [1] of 0.432.

B2: CA149 (antibody, human IgG1, kappa, V domains shown)
VH: EVQLVESGGGVVQPGRSLRLSCAASGFTFSSYAMHWVRQAPGKGLEWVAVISFDGSNKYYTDSVKGRFTISRDNSKNTLYLQMNSLRAEDTAVYYCAREVPYYYGSGPFDYWGQGTLVTVSS
VL: EIVLTQSPATLSVSPGERATLSCRASQSVSSNLAWYQQKPGQAPRHLIDGASSRASGIPDRFSGSGSGTDFTLTISRLEPEDFAVYYCQQYGSSPPFTFGPGTKVDIKR
notes: Intact IgG1; also called CA149 antibody
On to B2, for which the Octet response value with Human CD228 protein [1] was 0.0102. This molecule also came in with a dissociation constant (Kd) in the experiment with Human CD228 protein [2] of 1.99 nM.

B3: CA185 (antibody, human IgG1, kappa, V domains shown)
VH: B2 VH with F53Y, T61A
VL: EIVLTQSPGTLSLSPGERATLSCRASQSVSSSSLAWYQQKPGQAPRHLIDGASSRASGIPDRFSGSGSGTDFTLTISRLEPEDFAVYYCQQYGSSYTFGQGTKVDIKR
notes: Intact IgG1
With B3, the Octet response value with Human CD228 protein [1] is 0.0055.

B4: CA13 (antibody, human IgG1, kappa, V domains shown)
VH: EVQLVESGGGVVQPGRSLRLSCAASGFTFSSYAMHWVRQAPGKGLEWVAVISYDGSNKYYADSVKGRFTISRDNSKNTLFLQMNSLRAEDTAVYYCARDVYHYGSRSPYYYGMDVWGQGTTVTVSS
VL: DIVMTQSPSSLSASVGDRVTITCRASQGISNYLAWFQQKPGKVPKLLIYAASTLQSGVPSRFSGSGSGTDFTLTISSLQPEDVATYYCQKYNSAPFTFGPGTKVDIKR
notes: Intact IgG1 from fully human antibody-transgenic mice
In the experiment with Human CD228 protein [1], B4 gave an Octet response value of -0.0061.

B5: CA518 (antibody, human IgG1, kappa, V domains shown)
VH: B4 VH with Y60H, A97V
VL: B4 VL with V3Q, L11V, N31S, Y32W, F36Y, V43A, T53S
notes: Intact IgG1
Molecule B5 showed an Octet response value with Human CD228 protein [1] of -0.0043.

B6: CA67 (antibody, human IgG1, kappa, V domains shown)
VH: B4 VH with F80Y
VL: B4 VL with V3Q, G28A, F36Y, Q55H, S56P
notes: Intact IgG1
Regarding B6, in the experiment with Human CD228 protein [1], the Octet response value is -0.0132.

B7: BA352 (antibody, human IgG1, kappa, V domains shown)
VH: EVQLVESGGGVVQPGRSLRLSCAASGFTFSSYAMHWVRQAPGKGLEWVAVISYDGSNKYYADSVKGRFTISRDNSKNTLYLQMNSLRAEDTAVYYCARGPYLAAAGTALTFDIWGQGTMVTVSS
VL: DIQMTQSPSAMSASVGDRVTITCRASQGINNYLAWFQQKPGKVPKRLIYAASSLQSGVPSRFSGSGSGTEFTLTISSLQPEDFATYYCLQHNSYPFTFGPGTKVDIKR
notes: Intact IgG1
For the molecule B7, in the experiment with Human CD228 protein [1], the Octet response value is 0.426.

For the origin of these results see US20250121082A1 (SHANDONG BOAN BIOTECHNOLOGY, published 2025).
